These results are taken from patent US8597902B2, “Peptide protection against ultraviolet light toxicity” (Helix Biomedix, Inc., priority 2009, dated 2013).

Experiment [1] concerns the target T1, Activated human Chk2 enzyme (Homo sapiens, UniProt O96017).
T1 construct: purchased Sigma (St. Louis, MO)
Nature of the experiment: K-LISA Checkpoint Activity Kit: Chk2 phosphorylation of biotinylated cdc25c surrogate substrate peptide. The experiment is classed as biochemical. The settings on record: peptide 50 μg/mL final concentration; for inhibition of the activity of Chk2 against the substrate peptide (in words): carboxy-terminal amidated peptides, absorbance 450/540 nm. The protocol:
Activated human Chk2enzyme for these tests was obtained from Sigma (St. Louis, MO).
This incubation allowed for substrate phosphorylation by Chk2 and substrate capture in a single step. Following incubation, the phosphorylated substrate was detected using an anti-phosphoserine primary antibody, a horseradish peroxidase (HRP)-conjugated secondary antibody and TMB (tetramethylbenzidine) substrate for color development (the primary and secondary antibodies, and TMB, were provided in the K-LISA™ Checkpoint Activity Kit). Assay sensitivity was increased by the addition of the Stop solution provided in the kit. Relative Chk2 activity was determined by reading the absorbance of each well at dual wavelengths 450/540 nm.

The target of experiment [2] is Activated human checkpoint kinase 2 (Chk2) (human).

Ends that are not written are not given here.

T1 sequence (O96017 whole entry): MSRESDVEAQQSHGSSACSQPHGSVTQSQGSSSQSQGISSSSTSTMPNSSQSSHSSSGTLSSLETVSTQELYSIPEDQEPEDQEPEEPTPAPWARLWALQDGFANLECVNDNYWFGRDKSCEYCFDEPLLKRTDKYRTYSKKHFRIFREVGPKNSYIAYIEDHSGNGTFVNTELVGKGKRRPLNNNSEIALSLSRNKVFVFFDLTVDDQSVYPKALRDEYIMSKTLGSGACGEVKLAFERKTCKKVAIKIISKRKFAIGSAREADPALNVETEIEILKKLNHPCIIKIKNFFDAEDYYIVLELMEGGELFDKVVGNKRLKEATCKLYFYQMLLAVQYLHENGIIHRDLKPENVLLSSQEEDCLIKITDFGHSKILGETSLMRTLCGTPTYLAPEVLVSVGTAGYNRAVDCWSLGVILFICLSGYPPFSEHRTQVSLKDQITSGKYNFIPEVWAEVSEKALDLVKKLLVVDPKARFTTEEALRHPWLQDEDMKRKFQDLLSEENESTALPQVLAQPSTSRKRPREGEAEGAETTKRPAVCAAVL

“FHSIYQSH (FHSIYQSH-NH2; listed as Homo sapiens) [SEQ ID NO:6]”: the “inhibition of the activity of Chk2 against the substrate peptide (in words)” value (shortened to “inhibition of the activity of Chk2”) in experiment [1] is “inhibited”.
Still for that read-out and setting: as for “HSLYQSH (HSLYQSH-NH2; listed as Homo sapiens) [SEQ ID NO:8]”, the entry is “inhibited”.
Turning to “SLYQS (not fully specified (C-terminus); listed as Homo sapiens) [SEQ ID NO:10]”, in experiment [1], the “inhibition of the activity of Chk2” value is on record as “inhibited”. The “reduction of Chk2 phosphorylation activity” value in experiment [1] (versus control Chk2 activity) is given as “about 48%”.
For “YHSIYQSHI (YHSIYQSHI-NH2; listed as Homo Sapiens) [SEQ ID NO:3]”, the “inhibition of the activity of Chk2” value in experiment [1] was “inhibited”.
The same measure, in the same setting: with “YHSLYESK (YHSLYESK-NH2; listed as Homo sapiens) [SEQ ID NO:5]” the entry was “inhibited”.
The same measure, in the same setting: as for “YHSLYQSHL (YHSLYQSHL-NH2; listed as Homo sapiens) [SEQ ID NO:2]”, the entry is “inhibited”.

B1: SEQ ID NO:10 peptide (SLYQS; Ser-Leu-Tyr-Gln-Ser), carboxy-terminal amidated (peptide)
peptide: SLYQS-NH2
As for B1, the Reduction of Chk2 phosphorylation activity (K-LISA, absorbance 450/540 nm) in experiment [2] was 48%.
